Assay: Single-channel current recording in planar phospholipid bilayer membranes
Conditions: voltage clamp, peptide added to one side, pH 7.4
Procedure: Planar phospholipid bilayer membranes were formed as described by Mirzabekov et al. (1999) Meth. Enzymol. 294: 61-74. A bubble of lipid dissolved in heptane was placed at the end of a small (100-300 μm) Teflon tube. Silver/silver chloride electrodes connected the aqueous components bounding the membrane to a voltage clamp. Ion-channel currents through the membrane were recorded by an Axopatch amplifier (Axon Instruments, Sunnyvale, Calif.). Data were filtered at 1 kHz and stored on VHS tape. Membrane capacitance and resistance were monitored continuously to ensure the formation and stability of reproducible membranes and the proper membrane thickness. […] Peptide samples were introduced by perfusing the aqueous solution bounding one side of the membrane.

B1: SAA: human apo-serum amyloid A purchased from PeproTech (protein, UniProt P0DJI8 19-122, looked up)
Serum amyloid A-1 protein: RSFFSFLGEAFDGARDMWRAYSDMREANYIGSDKYFHARGNYDAAKRGPGGAWAAEVITDARENIQRFFGHGAEDSLADQAANEWGRSGKDPNHFRPAGLPEKY
  induction of single-channel ion currents / conductances: Current jumps corresponding to the opening or closing of individual ion channels can be observed
